{"source": "the supplement of paper PMC5998384", "key": {"[1]": {"system": "HeLa Kyoto", "test": "melting temperature (median over replicates), in situ; higher = more thermally stable"}, "[2]": {"system": "HeLa Kyoto", "test": "solubility change mitosis vs G1/S (difference of NP-40 vs SDS log2 ratios) (log2 ratio difference); higher = more soluble in mitosis"}, "[3]": {"system": "HeLa Kyoto", "test": "solubility in G1/S (NP-40 vs SDS abundance) (log2 ratio); higher = more soluble", "conditions": "cell cycle stage: G1/S"}, "[4]": {"system": "HeLa Kyoto", "test": "thermal stability score vs G1/S (z-score of summed log2 fold changes over temperatures); higher = more thermally stable than in G1/S"}, "[5]": {"conditions": "cell cycle stage: early G1 (4.5 h after nocodazole release)"}}}
{"sequence": "MAPARCFSARLRTVFQGVGHWALSTWAGLKPSRLLPQRASPRLLSVGRADLAKHQELPGKKLLSEKKLKRYFVDYRRVLVCGGNGGAGASCFHSEPRKEFGGPDGGDGGNGGHVILRVDQQVKSLSSVLSRYQGFSGEDGGSKNCFGRSGAVLYIRVPVGTLVKEGGRVVADLSCVGDEYIAALGGAGGKGNRFFLANNNRAPVTCTPGQPGQQRVLHLELKTVAHAGMVGFPNAGKSSLLRAISNARPAVASYPFTTLKPHVGIVHYEGHLQIAVADIPGIIRGAHQNRGLGSAFLRHIERCRFLLFVVDLSQPEPWTQVDDLKYELEMYEKGLSARPHAIVANKIDLPEAQANLSQLRDHLGQEVIVLSALTGENLEQLLLHLKVLYDAYAEAELGQGRQPLRW [MTG2]", "values": [{"measurement": "melting temperature", "setting": "[1]; cell cycle stage: G1/S", "result": 49.6, "unit": "°C"}, {"measurement": "melting temperature", "setting": "[1]; cell cycle stage: mitosis", "result": 49.1, "unit": "°C"}, {"measurement": "solubility change mitosis (log2)", "setting": "[2]", "result": 0.00581}, {"measurement": "solubility in G1/S (log2)", "setting": "[3]", "result": 0.239}, {"measurement": "thermal stability score", "setting": "[4]; [5]", "result": -0.446}, {"measurement": "thermal stability score", "setting": "[4]; cell cycle stage: mitosis", "result": 0.103}]}
{"sequence": "MADIDNKEQSELDQDLDDVEEVEEEETGEETKLKARQLTVQMMQNPQILAALQERLDGLVETPTGYIESLPRVVKRRVNALKNLQVKCAQIEAKFYEEVHDLERKYAVLYQPLFDKRFEIINAIYEPTEEECEWKPDEEDEISEELKEKAKIEDEKKDEEKEDPKGIPEFWLTVFKNVDLLSDMVQEHDEPILKHLKDIKVKFSDAGQPMSFVLEFHFEPNEYFTNEVLTKTYRMRSEPDDSDPFSFDGPEIMGCTGCQIDWKKGKNVTLKTIKKKQKHKGRGTVRTVTKTVSNDSFFNFFAPPEVPESGDLDDDAEAILAADFEIGHFLRERIIPRSVLYFTGEAIEDDDDDYDEEGEEADEEGEEEGDEENDPDYDPKKDQNPAECKQQ [NAP1L1]", "values": [{"measurement": "melting temperature", "setting": "[1]; cell cycle stage: G1/S", "result": 49.7, "unit": "°C"}, {"measurement": "melting temperature", "setting": "[1]; cell cycle stage: mitosis", "result": 50.9, "unit": "°C"}, {"measurement": "solubility change mitosis (log2)", "setting": "[2]", "result": -0.0741}, {"measurement": "solubility in G1/S (log2)", "setting": "[3]", "result": 0.329}, {"measurement": "thermal stability score", "setting": "[4]; [5]", "result": 2.07}, {"measurement": "thermal stability score", "setting": "[4]; cell cycle stage: mitosis", "result": 2.03}]}
{"sequence": "MSMPDAMPLPGVGEELKQAKEIEDAEKYSFMATVTKAPKKQIQFADDMQEFTKFPTKTGRRSLSRSISQSSTDSYSSAASYTDSSDDEVSPREKQQTNSKGSSNFCVKNIKQAEFGRREIEIAEQDMSALISLRKRAQGEKPLAGAKIVGCTHITAQTAVLIETLCALGAQCRWSACNIYSTQNEVAAALAEAGVAVFAWKGESEDDFWWCIDRCVNMDGWQANMILDDGGDLTHWVYKKYPNVFKKIRGIVEESVTGVHRLYQLSKAGKLCVPAMNVNDSVTKQKFDNLYCCRESILDGLKRTTDVMFGGKQVVVCGYGEVGKGCCAALKALGAIVYITEIDPICALQACMDGFRVVKLNEVIRQVDVVITCTGNKNVVTREHLDRMKNSCIVCNMGHSNTEIDVTSLRTPELTWERVRSQVDHVIWPDGKRVVLLAEGRLLNLSCSTVPTFVLSITATTQALALIELYNAPEGRYKQDVYLLPKKMDEYVASLHLPSFDAHLTELTDDQAKYLGLNKNGPFKPNYYRY [AHCYL1]", "values": [{"measurement": "melting temperature", "setting": "[1]; cell cycle stage: G1/S", "result": 56.4, "unit": "°C"}, {"measurement": "melting temperature", "setting": "[1]; cell cycle stage: mitosis", "result": 54.6, "unit": "°C"}, {"measurement": "solubility change mitosis (log2)", "setting": "[2]", "result": -0.119}, {"measurement": "solubility in G1/S (log2)", "setting": "[3]", "result": -0.111}, {"measurement": "thermal stability score", "setting": "[4]; [5]", "result": -5.66}, {"measurement": "thermal stability score", "setting": "[4]; cell cycle stage: mitosis", "result": -9.49}]}
{"sequence": "MQDPNADTEWNDILRKKGILPPKESLKELEEEAEEEQRILQQSVVKTYEDMTLEELEDHEDEFNEEDERAIEMYRRRRLAEWKATKLKNKFGEVLEISGKDYVQEVTKAGEGLWVILHLYKQGIPLCALINQHLSGLARKFPDVKFIKAISTTCIPNYPDRNLPTIFVYLEGDIKAQFIGPLVFGGMNLTRDELEWKLSESGAIMTDLEENPKKPIEDVLLSSVRRSVLMKRDSDSEGD [PDCL3]", "values": [{"measurement": "melting temperature", "setting": "[1]; cell cycle stage: G1/S", "result": 54.2, "unit": "°C"}, {"measurement": "melting temperature", "setting": "[1]; cell cycle stage: mitosis", "result": 54.2, "unit": "°C"}, {"measurement": "solubility change mitosis (log2)", "setting": "[2]", "result": -0.135}, {"measurement": "solubility in G1/S (log2)", "setting": "[3]", "result": 0.617}, {"measurement": "thermal stability score", "setting": "[4]; [5]", "result": -0.23}, {"measurement": "thermal stability score", "setting": "[4]; cell cycle stage: mitosis", "result": -0.106}]}
{"sequence": "METAEKECGALGGLFQAIVNDMKSSYPIWEDFNSKATKLHSQLRTTVLAAVAFLDAFQKVADMATNTRGATRDIGSALTRMCMRHRSIETKLRQFTNALLESLINPLQERIEDWKKAANQLDKDHAKEYKRARHEIKKKSSDTLKLQKKARKELLGKGDLQPQLDSALQDVNDMYLLLEETEKQAVRRALIEERGRFCTFITFLQPVVNGELTMLGEITHLQGIIDDLVVLTAEPHKLPPASEQVIKDLKGSDYSWSYQTPPSSPSSSSSRKSSMCSAPSSSSSAKGGGAPWPGGAQTYSPSSTCRYRSLAQPATTTARLSSVSSHDSGFVSQDATYSKPPSPMPSDITSQKSSSSASSEASETCQSVSECSSPTSDWSKVGSHEQPSGATLQRRKDRVELLRDTEPGPASGGTLGPSGEEAPRPRMSPATIAAKHGEEVSPAASDLAMVLTRGLSLEHQKSSRDSLQYSSGYSTQTTTPSCSEDTIPSQGSDYDCYSVNGDADSEGPPEFDKSSTIPRNSNIAQNYRRLIQTKRPASTAGLPTAGLPTATGLPSGAPPGVATIRRTPSTKPTVRRALSSAGPIPIRPPIVPVKTPTVPDSPGYMGPTRAGSEECVFYTDETASPLAPDLAKASPKRLSLPNTAWGSPSPEAAGYPGAGAEDEQQQLAANRHSLVEKLGELVAGAHALGEGQFPFPTALSATPTEETPTPPPAATSDPPAEDMLVAIRRGVRLRRTVTNDRSAPRIL [MTSS1L]", "values": [{"measurement": "melting temperature", "setting": "[1]; cell cycle stage: G1/S", "result": 53.5, "unit": "°C"}, {"measurement": "melting temperature", "setting": "[1]; cell cycle stage: mitosis", "result": 54.2, "unit": "°C"}, {"measurement": "solubility change mitosis (log2)", "setting": "[2]", "result": -0.0468}, {"measurement": "solubility in G1/S (log2)", "setting": "[3]", "result": 0.191}, {"measurement": "thermal stability score", "setting": "[4]; [5]", "result": 0.647}, {"measurement": "thermal stability score", "setting": "[4]; cell cycle stage: mitosis", "result": 0.625}]}
